Experimental findings from the Immune Epitope Database (IEDB) are described below.

Targets include HLA-A*02:02; HLA-A*02:03; HLA-A*02:06.
What all share (assay): IEDB peptide-MHC binding, purified MHC/competitive/radioactivity; filed as Kd, often an IC50 or EC50 that approximates it; ≥ and ≤ were set here for values at or beyond the usual limits of such assays
Where [1] appears, read: source organism: Vaccinia virus WR.
[2] abbreviates: source organism: Dengue virus 3 Martinique/1243/1999.
Setting [3] is: source organism: Mammarenavirus whitewaterense.
Where [4] appears, read: source organism: SARS coronavirus Tor2.
[5] abbreviates: source organism: Mammarenavirus brazilense.

pKd: −log10 of the molar value.

As usually defined, the pKd is −log10 of the Kd, conventionally taken in molar units.

Turning to LISILMIFI, the negative-log Kd (pKd) in the test with HLA-A*02:02 (setting [1]) is 5.63; with HLA-A*02:03 (setting [1]) it was at most 5.30; with HLA-A*02:06 (setting [1]) it was 5.15.
Regarding LISSDGARVI, the values for the negative logarithm of the Kd (pKd) with HLA-A*02:02 (setting [1]), with HLA-A*02:03 (setting [1]) and with HLA-A*02:06 (setting [1]) were 5.14, 5.94 and at most 4.46, respectively.
Regarding PLKDVERLQM, the pKd with HLA-A*02:02 (setting [1]) was 5.21; with HLA-A*02:03 (setting [1]) it was at most 4.36; in the test with HLA-A*02:06 (setting [1]), at most 4.43.
Regarding LAEHISDSI, the pKd was 7.34 with HLA-A*02:02 (setting [1]), 6.14 in the test with HLA-A*02:03 (setting [1]) and 4.72 in the test with HLA-A*02:06 (setting [1]).
On to LIVILFIMFM, for which the figures for the pKd in the test with HLA-A*02:02 (setting [1]), in the test with HLA-A*02:03 (setting [1]) and with HLA-A*02:06 (setting [1]) were 7.07, 6.36 and 6.92, respectively.
Regarding IVLEFFMMVL, in the test with HLA-A*02:06 (setting [2]), the pKd is 6.97.
On to PLHIVCSKT, for which the results for the negative-log Kd (pKd) with HLA-A*02:02 (setting [1]), with HLA-A*02:03 (setting [1]) and with HLA-A*02:06 (setting [1]) were 6.00, 5.67 and 5.41, respectively.
With MLKLFTHDIM, the negative-log Kd (pKd) with HLA-A*02:02 (setting [1]) was 7.07; with HLA-A*02:03 (setting [1]) it was 7.03; with HLA-A*02:06 (setting [1]), at most 4.69.
The matching figures for KAMHDKKIDI: at most 4.15, at most 4.34 and at most 4.58.
For EIVKNIREGT, the pKd is at most 4.55 with HLA-A*02:02 (setting [1]), 5.07 with HLA-A*02:03 (setting [1]) and at most 4.22 in the test with HLA-A*02:06 (setting [1]).
Take FSAVISGSV: the pKd is 7.32 in the test with HLA-A*02:02 (setting [3]), 4.85 in the test with HLA-A*02:03 (setting [3]) and 6.79 with HLA-A*02:06 (setting [3]).
NLKYTVIITV: the negative-log Kd (pKd) with HLA-A*02:03 (setting [2]) is 8.03.
With DITNILGGV, the negative-log Kd (pKd) in the test with HLA-A*02:02 (setting [1]) was 5.01; in the test with HLA-A*02:03 (setting [1]) it was 5.79; in the test with HLA-A*02:06 (setting [1]), 5.13.
For GIIITVGML, the negative logarithm of the Kd (pKd) with HLA-A*02:02 (setting [1]) is 5.06; with HLA-A*02:03 (setting [1]), 6.46; in the test with HLA-A*02:06 (setting [1]) it was 4.74.
With QLMCQPILLL, the negative logarithm of the Kd (pKd) was 7.03 in the test with HLA-A*02:02 (setting [4]), 6.66 with HLA-A*02:03 (setting [4]) and 6.49 in the test with HLA-A*02:06 (setting [4]).
For the sequence FIASAPQQL, the pKd is 8.71 in the test with HLA-A*02:02 (setting [1]), 8.36 in the test with HLA-A*02:03 (setting [1]) and 7.05 with HLA-A*02:06 (setting [1]).
In the case of ELVKHGLRAL, the pKd with HLA-A*02:06 (source organism: Homo sapiens) is at most 4.36.
As for HSLPRCWLV, the pKd with HLA-A*02:02 (setting [5]) is 6.18; with HLA-A*02:03 (setting [5]), 6.84; with HLA-A*02:06 (setting [5]), 6.49.
Regarding IINSVSIILA, the pKd with HLA-A*02:02 (setting [1]) is 6.14; with HLA-A*02:03 (setting [1]) it was 6.05; with HLA-A*02:06 (setting [1]), 6.02.
On to CVDHPFIYVI, for which the negative logarithm of the Kd (pKd) is 6.02 in the test with HLA-A*02:02 (setting [1]), 4.97 in the test with HLA-A*02:03 (setting [1]) and 5.79 with HLA-A*02:06 (setting [1]).
The matching figures for FVNFVKDMI: 7.26, 6.91 and 6.64.
As to KLLNMRDLIV, the pKd in the test with HLA-A*02:02 (setting [1]) was 6.71; in the test with HLA-A*02:03 (setting [1]), 7.53; in the test with HLA-A*02:06 (setting [1]), 8.56.
With RLASMAICSA, the pKd with HLA-A*02:03 (source organism: Dengue virus 4 Philippines/H241/1956) is 7.61.
With EVLMSPCRM, the negative-log Kd (pKd) is 5.17 in the test with HLA-A*02:02 (setting [1]), 6.19 with HLA-A*02:03 (setting [1]) and 4.93 with HLA-A*02:06 (setting [1]).
For the sequence FMECNLNEL, the pKd with HLA-A*02:03 (source organism: Homo sapiens) is 8.96.
Regarding VQLPKRGVRV, the pKd in the test with HLA-A*02:02 (setting [1]) is at most 4.47; with HLA-A*02:03 (setting [1]), 5.66; with HLA-A*02:06 (setting [1]), 7.38.
For TLFGRGVIDT the same measures were 6.70, 7.02 and 5.48.
Consider IMTSTRTIIL, for which the figures for the pKd with HLA-A*02:02 (setting [1]), with HLA-A*02:03 (setting [1]) and in the test with HLA-A*02:06 (setting [1]) were 5.99, 7.28 and 6.36, respectively.
For DQLVFNSISA the same measures were 6.69, 6.54 and 6.12.
As for TTELNIVDEI, the pKd was at most 4.41 in the test with HLA-A*02:02 (setting [1]), at most 4.15 with HLA-A*02:03 (setting [1]) and at most 4.67 with HLA-A*02:06 (setting [1]).
Consider NQGNILMDSI, for which the pKd is 5.41 with HLA-A*02:02 (setting [1]), 5.39 with HLA-A*02:03 (setting [1]) and 5.51 with HLA-A*02:06 (setting [1]).
Turning to WLGAAITLVV, the pKd with HLA-A*02:02 (setting [1]) was 7.71; with HLA-A*02:03 (setting [1]), 7.11; with HLA-A*02:06 (setting [1]), 5.74.
DVNSVQFSIL: the pKd with HLA-A*02:02 (setting [1]) was 5.64; with HLA-A*02:03 (setting [1]) it was 5.78; in the test with HLA-A*02:06 (setting [1]), 5.47.
IISTDQDTM: the negative-log Kd (pKd) with HLA-A*02:02 (setting [1]) is 5.37; with HLA-A*02:03 (setting [1]), at most 4.48; with HLA-A*02:06 (setting [1]), 5.63.
With YVHSLLYSSM, the values for the negative-log Kd (pKd) with HLA-A*02:02 (setting [1]), with HLA-A*02:03 (setting [1]) and with HLA-A*02:06 (setting [1]) were 5.66, 5.17 and 5.65, respectively.
For the sequence SALMTLDDL, the pKd is 6.39 in the test with HLA-A*02:02 (setting [1]), 6.15 with HLA-A*02:03 (setting [1]) and 7.00 with HLA-A*02:06 (setting [1]).
With YIKDLKHAT, the negative logarithm of the Kd (pKd) with HLA-A*02:02 (setting [1]) is 4.73; with HLA-A*02:03 (setting [1]), at most 4.11; with HLA-A*02:06 (setting [1]) it was at most 4.40.
On to PTSETMYLT, for which the results for the pKd in the test with HLA-A*02:02 (setting [1]), with HLA-A*02:03 (setting [1]) and in the test with HLA-A*02:06 (setting [1]) were 4.98, 5.44 and at most 4.11, respectively.
